Measured values: the supplement of paper PMC10567573
± gives the standard deviation.

Test: protein stability index of a GFP-peptide fusion (GPS, HEK-293T) (PSI 1-6); higher = more stable
[1] = treatment: DMSO, c terminus: a fixed tail appended
[2] = treatment: MLN4924 1 uM, 8 h, c terminus: a fixed tail appended
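Note: 24-mer peptide tiles fused after GFP, lentivirally expressed, FACS-sorted into six equal bins by GFP/DsRed ratio, decoded by Illumina sequencing, PSI is the read-weighted mean bin number.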

Sequence	protein stability index (treatment: DMSO, c terminus: native)	protein stability index (treatment: MLN4924 1 uM, 8 h, c terminus: native)	protein stability index [1]	protein stability index [2]
LICFCRESRYMDQWVPVINLPER [GADD45A]	2.98 ± 1.1	2.87 ± 0.84		
LIGLPPEDDWPRDVSLPRGAFPPR [CDK4]			3.49 ± 0.32	3.69 ± 0.23
LIRSLFHGFLFMIFQIGVLGFGPT [SOAT1]			3.52 ± 0.5	3.28 ± 0.63
LISCSEDGSVRIWELREKQQLAAE [WDR41]			2.89 ± 0.28	2.97 ± 0.2
LISQCGKPVVNVSYRPAYDQGGPV [DUSP5]			2.61 ± 0.38	2.6 ± 0.42
LKKKHQLLEDARRKGMPFAQWDGP [PPFIA4]			3.11 ± 0.37	3.31 ± 0.14
LKKMGKRLDYLNLKGARLTVEQGC [FBXO39]			2.62 ± 0.34	2.67 ± 0.28
LKLSIMSEEELTHIFGDLDSYIPL [NET1]			2.21 ± 0.1	2.28 ± 0.2
LKRKGKTDSPWIKPARKRRRRSRK [EHMT1]			5.1 ± 0.17	5.03 ± 0.23
LLAKMFGAKDSELASQNKPLWQCY [PDS5B]			2.57 ± 0.66	2.3 ± 0.31
LLCLFFGIPWEAGARQISYSIPEE [PCDHGA10]			1.94 ± 0.035	2.45 ± 0.41
LLLGSPHPAATALHAELCQAGSSQ [LPCAT4]			3.01 ± 0.42	3.18 ± 0.21
LLLLQVSSSYAGQFRVIGPRHPIR [MOG]			2.53 ± 0.51	2.04 ± 0.22
LLSKKGALQSRAAQRHRGSAKDGG [PLEKHN1]			4.31 ± 0.12	4.39 ± 0.28
LNATSKFMEFYQDVKDWWLFGFYF [EDNRA]			2.49 ± 0.86	2.13 ± 0.37
LNLDIGQVYKETRLFLDGEEEKEW [AASDHPPT]			3.95 ± 0.43	4.09 ± 0.44
LNLTRKLAQQLCTALLFLATPELS [DYRK1B]			2.9 ± 0.51	3.21 ± 0.47
LPDSPLRFDGLPAVLGFPGFSSGR [TRIM15]			2.87 ± 0.39	3.18 ± 0.41
LPNYNWNSFGLRFGKREAAPGNHG [KISS1]			3.14 ± 0.36	3.36 ± 0.42
LPQDEGGGGYSSVRYSDCCERVVI [KCNA4]			2.41 ± 0.3	2.77 ± 0.53
LPRKESPSVRSSKDGKLLAATLLL [TNFSF13B]			2.26 ± 0.21	2.18 ± 0.22
LQEVPTGLDSISHDSANCELPLLT [ETS2]			4.71 ± 0.12	4.92 ± 0.42

Sequence	protein stability index (treatment: DMSO, c terminus: native)	protein stability index (treatment: MLN4924 1 uM, 8 h, c terminus: native)	protein stability index [1]	protein stability index [2]
LQLGEGVEFDVLPAFDALGQLTGG [OAS1]			2.37 ± 0.35	2.72 ± 0.51
LQLLHECSPSQMDLLCAQLQLPQL [FANCE]			2.33 ± 0.27	2.49 ± 0.11
LRATVERMGLMKANHVFFLLYLLH [FADS1]			2.35 ± 0.37	2 ± 0.18
LRKKILKIRHGWEDVTKINKTEIC [STEAP1]			2.29 ± 0.47	2.56 ± 0.48
LRPSYTGLSSSSARFLSRSIPSLQ [CDC14A]			3.04 ± 0.38	2.85 ± 0.29
LRRTMQELEIELQSQLSMKAGLEN [KRT15]			2.86 ± 0.22	3.13 ± 0.38
LRTRGRTRGWVQTLARMSRRTRGP [C6orf223]			3.6 ± 0.23	3.97 ± 0.27
LRVEQKDFPAHRIVLAACSDYFCA [KLHL12]			2 ± 0.44	2.07 ± 0.29
LRVMETKPDKAVSIIECDMNVDFD [UFD1]			3.57 ± 0.43	3.53 ± 0.28
LSEGSSNEDEDLGPCEGPSKEDKD [SPANXN3]			5.71 ± 0.31	5.37 ± 0.41
LSEVLAQPQGALAPPNCESDSKTG [DNAAF3]			5.37 ± 0.14	5.52 ± 0.096
LSHLLGDAGSPYLIGLISDRLRRN [SPNS1]			2.18 ± 0.36	2.16 ± 0.39
LSIYVGCDKYPHESQLPEEWENNR [CPXM2]			2.98 ± 0.13	3.25 ± 0.4
LSLLGAVGLAAVNSMPVDNRNHNE [CHGB]			3.35 ± 0.2	3.54 ± 0.5
LSLTSSASRLLTTALTSFCAKYTY [FANCE]			2.72 ± 0.48	2.81 ± 0.67
LSPMTASSFLSFAELFSYVLQDRA [FEM1A]			2.47 ± 0.39	2.26 ± 0.13
LSRLQRVKFCLLGALLAPIRVLLA [LPCAT4]			3.67 ± 0.42	3.58 ± 0.14
LSSEVLVGDLMSPFDQSGLGAEES [ATF4]			5 ± 0.48	4.84 ± 0.18
LSTAASLGPSGLQNHGQHLILSRE [LCOR]			3.99 ± 0.38	3.96 ± 0.16
LSTADGKAFADPEVLRRLTSSVSC [ANKRD17]			3.55 ± 0.17	3.69 ± 0.29
LTKAATSGVGIDGEVLSYLELAQF [RHOBTB1]			2.44 ± 0.18	2.47 ± 0.43
LVEHYKKAPIFTSEHGEKLYLVRA [NCK2]			2.28 ± 0.21	2.42 ± 0.24
